# Measurements as given in article PMC9129000, “RADA-dependent branch migration has a predominant role in plant mitochondria and its defect leads to mtDNA instability and cell cycle arrest”.
# B1: EMSA ssDNA (ssDNA)
# DNA: GACGCTGCCGAATTCTACCAGTGCCTTGCTAGGACATCTTTGCCCACCTGCAGGTTCACCC
# Target: T1, RADA K201A (Arabidopsis thaliana, UniProt F4K8X8 49-627, K201A)
# T1 sequence: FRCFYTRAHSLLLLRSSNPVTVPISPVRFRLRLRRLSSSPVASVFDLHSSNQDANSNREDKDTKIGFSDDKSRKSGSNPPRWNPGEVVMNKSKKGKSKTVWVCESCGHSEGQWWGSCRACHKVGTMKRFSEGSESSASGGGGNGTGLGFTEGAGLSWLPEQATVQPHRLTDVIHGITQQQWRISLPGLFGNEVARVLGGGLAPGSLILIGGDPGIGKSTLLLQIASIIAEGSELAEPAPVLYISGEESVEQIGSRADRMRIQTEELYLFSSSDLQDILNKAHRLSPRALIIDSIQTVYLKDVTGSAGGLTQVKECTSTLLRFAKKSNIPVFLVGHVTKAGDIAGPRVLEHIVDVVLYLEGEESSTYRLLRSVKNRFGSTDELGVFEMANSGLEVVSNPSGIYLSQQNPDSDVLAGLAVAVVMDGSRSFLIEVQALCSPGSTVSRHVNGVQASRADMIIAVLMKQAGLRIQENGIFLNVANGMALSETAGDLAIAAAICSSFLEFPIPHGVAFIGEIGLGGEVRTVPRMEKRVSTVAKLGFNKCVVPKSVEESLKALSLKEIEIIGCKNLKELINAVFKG
# Assay: EMSA; affinity comparable to WT; 20 mM Tris-HCl pH 7.5, 50 mM KCl, 5 mM MgCl2, 0.5 mM EDTA, 10% glycerol, 1 mM DTT, protease inhibitors; 20 C, 20 min; 8 or 4.5% PAGE in TBE at 4 C
# Conditions: protein: recombinant; tags: N-terminal His (pET28a); chain copies: 6; label: 5'-32P; single strand
binder,measurement,value
B1,binding result,binds
